Source: patent publication US7070943B2 (priority 1998, dated 2006)

Key:
Type in all cases: cell-based, Human
U937 cells = assay: Cell cycle distribution and apoptotic (sub-G1) cells by DNA content flow cytometry; settings: U937, 170 nM
Method: FIG. 11 presents growth and viability curves (a) as well as cell cycle distribution (b) of U937 cells maintained in the absence (CTRL) and presence of 170 nM (2.0 μg/ml) ONCONASE® (ONC) for up to 72 h. The percentage of dead cells was estimated based on the trypan blue exclusion test. The percentage of cells in the respective phases was estimated flow cytometrically based on their DNA content. Apoptotic cells (Ap) were recognized as the cells with fractional DNA content (sub-G1), as previously described;
(§1) Anti-cyclin D3 mAb immunofluorescence in combination with DNA content was measured by multiparameter flow cytometry (a). The cells were growing either in the absence (Exp, exponential growth) or in the presence of 170 nM ONCONASE® for 48 hours (Onc). There were 48%, 38% and 14% of cells in G1, S, and G2/M in Exp culture compared with 64%, 24% and 13% cells in G1, S, and G2/M, respectively, in Onc culture. The scattergrams represent bivariate distributions of the cells with respect to their cyclin D3 vs. DNA content associated fluorescence intensities. The upper level of the isotype-matched control (mean fluorescence+3 standard deviations) is marked in the Exp panel with a dashed line. The bar plots represent the mean FITC (anti-cyclin D3 mAb) fluorescence values (arbitrary units) of the cells in different phases of the cycle (gated based on differences in DNA content as shown in the Exp panel), after subtraction of the background fluorescence, i.e., mean fluorescence of the same cells but stained with isotype-matched control IgG antibody. Western blots (b) show expression of cyclin D3 in control culture and in the culture treated with Onconase 48 h;
Following incubations in the absence or presence of ONCONASE®, the cells were washed with phosphate-buffered saline (PBS) and fixed in suspension in either ice-cold 80% ethanol or absolute methanol for up to 24 h. After fixation, the cells were washed twice with PBS and then suspended in 1 ml of 0.25% Triton X-100 (Sigma, St. Louis, Mo., USA) in PBS on ice for 5 min. The cells were then centrifuged (300 g, 5 min), the cell pellet suspended 100 μl PBS containing 0.5 μg of the anti-cyclin (or anti-CKI) mAb and 1% bovine serum albumin (BSA; Sigma), and incubated for 2 h at room temperature. Anti-cyclin D3 (clone G107-565); anti-cyclin E (clone HE12); anti-p16^INK4a (clone G175-405); and […] (clone SX118) and anti-p27^KIP1 (clone G173-524) mAbs, all were obtained from PharMingen (San Diego, Calif., USA). After incubation with the respective mAbs the cells were rinsed with PBS containing 1% BSA and incubated with the FITC-conjugated goat anti-mouse IgG antibody (Molecular Probes) diluted 1:30 in PBS containing 1% BSA for 30 min at room temperature in the dark. […]
Cellular fluorescence was measured with the ELITE ESP flow cytometer/cell sorter (Coulter, Miami, Fla., USA) using either argon ion laser (emission at 488 nm) alone or combined with helium-cadmium laser (emitting UV light). In the first case, fluorescence signals were collected using the standard configuration of the flow cytometer (green fluorescence, representing directly or indirectly FITC-labeled antibodies; red fluorescence representing CYCHROME® tagged anti-pRB^T mAb). In the second case, DNA content was analyzed based on DAPI fluorescence (blue emission) excited by UV light, while the anti-pRB^P− mAb (FITC) and anti-pRB^T (Cy-Chrome®) related emission was excited with blue light laser. […]

p16^INK4a = p16^INK4a expression by flow cytometry in U937 cells; settings: U937, 170 nM, 72 hours
Method: Proportions of cells in different phases of the cycle were the same as in FIG. 12;
Following incubations in the absence or presence of ONCONASE®, the cells were washed with phosphate-buffered saline (PBS) and fixed in suspension in either ice-cold 80% ethanol or absolute methanol for up to 24 h. After fixation, the cells were washed twice with PBS and then suspended in 1 ml of 0.25% Triton X-100 (Sigma, St. Louis, Mo., USA) in PBS on ice for 5 min. The cells were then centrifuged (300 g, 5 min), the cell pellet suspended 100 μl PBS containing 0.5 μg of the anti-cyclin (or anti-CKI) mAb and 1% bovine serum albumin (BSA; Sigma), and incubated for 2 h at room temperature. […]
Cellular fluorescence was measured with the ELITE ESP flow cytometer/cell sorter (Coulter, Miami, Fla., USA) using either argon ion laser (emission at 488 nm) alone or combined with helium-cadmium laser (emitting UV light). In the first case, fluorescence signals were collected using the standard configuration of the flow cytometer (green fluorescence, representing directly or indirectly FITC-labeled antibodies; red fluorescence representing CYCHROME® tagged anti-pRB^T mAb). In the second case, DNA content was analyzed based on DAPI fluorescence (blue emission) excited by UV light, while the anti-pRB^P− mAb (FITC) and anti-pRB^T (Cy-Chrome®) related emission was excited with blue light laser.

underphosphorylated pRB = assay: pRB phosphorylation in U937 cells, anti-pRB^P− mAb flow cytometry; settings: U937, 170 nM
Source text: (§2) Also shown are cells from the culture at higher cell density (>10^6 cells/ml) where proliferation declined because of cell crowding (d). The cells reacting with anti-pRB^P− were in G0/1 phase (open arrows). The dashed line indicates the upper level of background fluorescence, i.e. of the cells pretreated with alkaline phosphatase. The percentage of cells reacting with anti-pRB^P− mAb was increased in the ONCONASE®-treated and crowded cultures compared to the control. No significant changes in expression of pRB detected by the antibody that reacts with this protein regardless of its phosphorylation status (anti-pRB^T) were observed between ONCONASE®-treated and control cells (not shown).
(§3) The status of phosphorylation of pRB in individual cells was monitored using a combination of anti-pRB antibodies, one specifically detecting underphosphorylated pRB (anti-pRb^P− mAb) and another which reacts with total pRB, regardless of its phosphorylation (anti-pRB^T mAb). […] The cells were then rinsed with PBS containing 1% BSA and their pRB associated green (anti-pRB^P−) and red (anti-PRB^T) fluorescence was measured by flow cytometry.
(§4) Cellular fluorescence was measured with the ELITE ESP flow cytometer/cell sorter (Coulter, Miami, Fla., USA) using either argon ion laser (emission at 488 nm) alone or combined with helium-cadmium laser (emitting UV light). […]

total pRB = assay: Total pRB in U937 cells, anti-pRB^T mAb flow cytometry
Source text: as §2, §3, §4

cyclin D3 = assay: Western blot of cyclin D3 in U937 cells; settings: U937, 48 h
Method: as §1
(§5) To reveal specificity of the antibodies that were used, a standard immunoblotting procedure was used on cellular lysates.

p21^WAF1/CIP1 = assay: Western blot of p21^WAF1/CIP1 in U937 cells; settings: U937, 170 nM, 72 hours
Source text: as §5

p27^KIP1 = assay: Western blot of p27^KIP1 in U937 cells; settings: U937, 17 and 170 nM, 72 h; not detected in Exp cells
Source text: as §5

B1: ONCONASE®: basic protein of 12,000 MW isolated from oocytes or early embryos of Rana pipiens, homologous to pancreatic RNase A (protein, UniProt P22069 1-104, looked up)
Protein P-30: QDWLTFQKKHITNTRDVDCDNIMSTNLFHCKDKNTFIYSRPEPVKAICKGIIASKNVLTTSEFYLSDCNVTSRPCKYKLKKSTNKFCVTCENQAPVHFVGVGSC
**Q.** How did the “cells in G2/M” value (U937 cells; 48 hours (Exp culture 14%)) turn out when B1 was run?
**A.** The value was 13%.

**Q.** What about the “cells in S” value (U937 cells; 48 hours (Exp culture 38%)) of the same molecule?
**A.** Its value is 24%.

**Q.** And the “cells in G1” value (U937 cells; 48 hours (Exp culture 48%))?
**A.** Its value is 64%.

**Q.** What about the “proportion of cells in G0/1 phase” value (U937 cells; after 72 h (from 47% in control)) of the same molecule?
**A.** Its value is about 70%.

**Q.** And the “percentage of apoptotic cells (sub-G1)” value (U937 cells; up to 72 h (from 2%))?
**A.** Its value is 6%.

**Q.** And the “increase in level of p16^INK4a” value (p16^INK4a)?
**A.** Its value is “over six-fold”.

**Q.** What about the “proportion of cells stainable with anti-pRB^P−” value (underphosphorylated pRB; 48 h (control 2.4%)) of the same molecule?
**A.** The value was 40.5%.

**Q.** What about the “proportion of cells stainable with anti-pRB^P−” value (underphosphorylated pRB; 72 h (control 2.4%)) of the same molecule?
**A.** The value was 43.3%.

**Q.** What about the “effect on total pRB (anti-pRB^T)” value (total pRB) of the same molecule?
**A.** The value was “no effect”.

**Q.** What about the “expression of cyclin D3, Western blot” value (cyclin D3) of the same molecule?
**A.** The value was “decrease in expression of cyclin D3”.

**Q.** What about the “p21^WAF1/CIP1 band, Western blot” value (p21^WAF1/CIP1) of the same molecule?
**A.** The value was “band only in the ONCONASE®-treated cells”.

**Q.** And the “p27^KIP1 bands, Western blot” value (p27^KIP1)?
**A.** Its value is “strong bands”.
